In patent US20220016130A1 (MAYO FOUNDATION FOR MEDICAL EDUCATION AND RESEARCH, published 2022):
Each block holds one binder with its values, some of them ahead of it.

Assays:
[1] = target: T1, BRD2 (human, UniProt P25440 1-801); assay: co-IP of endogenous proteins in PC-3 cells
T1 construct: One entry covers endogenous and FLAG-tagged full-length BRD2; also called FLAG-BRD2; Flag-BRD2
Protocol: (§1) To immunoprecipitate the ectopically expressed FLAG-tagged proteins, transfected cells were lysed 24 hours post-transfection in BC100 buffer. The whole-cell lysates were immunoprecipitated with the monoclonal anti-FLAG antibody-conjugated M2 agarose beads (Sigma-Aldrich) at 4° C. overnight. After three washes with lysis buffer, followed by two washes with BC100 buffer, the bound proteins were eluted using FLAG-Peptide (Sigma-Aldrich) prepared in BC100 for 3 hours at 4° C. The eluted protein sample was resolved by SDS-PAGE. To immunoprecipitate the endogenous proteins, cells were lysed with 1× cell lysis buffer (Cell Signaling Technology), and the lysate was centrifuged. The supernatant was precleared with protein A/G beads (Sigma-Aldrich) and incubated with the indicated antibody and protein A/G beads at 4° C. overnight. Beads were washed five times with lysis buffer and resuspended in sample buffer and analyzed by SDS-PAGE.

[2] = target: T2, BRD3 (human, UniProt Q15059 1-726); assay: co-IP of endogenous proteins in PC-3 cells
T2 construct: One entry covers endogenous and FLAG-tagged full-length BRD3; also called FLAG-BRD3; Flag-BRD3
Protocol: as §1

[3] = target: T3, BRD4 (human, UniProt O60885 1-1362); assay: co-IP from 293T cells transfected with Flag-tagged USPs (DUB3 and other DUBs) and HA-BRD4
T3 construct: One entry covers endogenous, Flag-tagged and HA-tagged full-length BRD4; also called FLAG-BRD4; Flag-BRD4
Protocol: as §1

[4] = target: T3, BRD4; assay: co-IP from 293T cells transfected with Flag-tagged USPs and HA-BRD4
Protocol: as §1

[5] = target: T4, BRD2 SBC motif-deleted mutant (human, UniProt P25440 1-801, limits assumed); assay: co-IP (anti-FLAG) in 293T cells
T4 construct: The deleted residues are not numbered in the text; also called FLAG-BRD2 mutant; not shown: FLAG tag

[6] = target: T5, BRD3 SBC motif-deleted mutant (human, UniProt Q15059 1-726, limits assumed); assay: co-IP (anti-FLAG) in 293T cells
T5 construct: The deleted residues are not numbered in the text; also called FLAG-BRD3 mutant; not shown: FLAG tag

[7] = target: T6, BRD4 SBC motif-deleted mutant (human, UniProt O60885 1-1362, limits assumed); assay: co-IP (anti-FLAG) in 293T cells
T6 construct: The deleted residues are not numbered in the text; also called FLAG-BRD4 mutant; not shown: FLAG tag

[8] = target: T1, BRD2; assay: figure legend title; yeast two-hybrid and co-IP
Protocol: (§2) A total of 2×10⁷ independent clones were screened by growth in deficient medium and X-gal staining. The positive clones were subsequently retested in fresh yeast cells, and the identities of prey were determined with interaction sequence tags (ISTs) obtained by DNA sequencing. The reading frame was verified.
as §1

[9] = target: T2, BRD3; assay: co-IP, ectopic in 293T and endogenous in LNCaP cells
Protocol: as §1

[10] = target: T7, DEK (human, UniProt P35659 2-375, limits assumed); assay: yeast two-hybrid screen, human fetal brain cDNA library
T7 construct: Positive clone of the yeast two-hybrid screen
T7 sequence (looked up): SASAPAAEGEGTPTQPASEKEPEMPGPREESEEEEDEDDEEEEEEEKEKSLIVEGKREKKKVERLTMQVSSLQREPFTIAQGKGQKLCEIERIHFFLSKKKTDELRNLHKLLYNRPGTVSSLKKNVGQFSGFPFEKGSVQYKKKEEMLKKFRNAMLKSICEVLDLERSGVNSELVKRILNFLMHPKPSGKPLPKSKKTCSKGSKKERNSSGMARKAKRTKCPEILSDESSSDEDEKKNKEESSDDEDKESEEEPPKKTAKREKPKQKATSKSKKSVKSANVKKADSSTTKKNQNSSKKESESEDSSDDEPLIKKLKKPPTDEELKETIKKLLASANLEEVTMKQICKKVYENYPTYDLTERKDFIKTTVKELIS
Protocol: as §2

[11] = target: T8, SRC-3 (human, UniProt Q9Y6Q9 2-1424, limits assumed); assay: as above
T8 construct: Positive clone of the yeast two-hybrid screen
Protocol: as §2

[12] = target: NCOR2 (human, UniProt Q9Y618 1-2514, limits assumed); assay: reciprocal co-IP of endogenous proteins in C4-2 cells
Protocol: as §1

[13] = target: T3, BRD4; assay: GST pull-down of Flag-BRD4 from PC-3 cells

B1: DUB3 (enzyme, human, UniProt Q6R6M4 1-530, looked up)
chain: MEDDSLYLGGEWQFNHFSKLTSSRPDAAFAEIQRTSLPEKSPLSSEARVDLCDDLAPVARQLAPRKKLPLSSRRPAAVGAGLQNMGNTCYENASLQCLTYTPPLANYMLSREHSQTCQRPKCCMLCTMQAHITWALHSPGHVIQPSQALAAGFHRGKQEDAHEFLMFTVDAMKKACLPGHKQVDHHSKDTTLIHQIFGGCWRSQIKCLHCHGISDTFDPYLDIALDIQAAQSVKQALEQLVKPEELNGENAYHCGLCLQRAPASKTLTLHTSAKVLILVLKRFSDVTGNKLAKNVQYPECLDMQPYMSQQNTGPLVYVLYAVLVHAGWSCHDGHYFSYVKAQEGQWYKMDDAKVTACSITSVLSQQAYVLFYIQKSEWERHSESVSRGREPRALGAEDTDRRATQGELKRDHPCLQAPELDERLVERATQESTLDHWKFPQEQNKTKPEFNVRKVEGTLPPNVLVIHQSKYKCGMKNHHPEQQSSLLNLSSTTRTDQESVNTGTLASLQGRTRRSKGKNKHSKRALLVCQ
notes: One entry covers endogenous, HA-tagged and Flag-tagged full-length DUB3; also called USP17L2; USP17
binding result [1]: no binding
binding result [2]: no binding
binding result [3]: binds

B2: Flag-USP28 (enzyme, UniProt Q96RU2 1-1077, looked up)
chain: MTAELQQDDAAGAADGHGSSCQMLLNQLREITGIQDPSFLHEALKASNGDITQAVSLLTDERVKEPSQDTVATEPSEVEGSAANKEVLAKVIDLTHDNKDDLQAAIALSLLESPKIQADGRDLNRMHEATSAETKRSKRKRCEVWGENPNPNDWRRVDGWPVGLKNVGNTCWFSAVIQSLFQLPEFRRLVLSYSLPQNVLENCRSHTEKRNIMFMQELQYLFALMMGSNRKFVDPSAALDLLKGAFRSSEEQQQDVSEFTHKLLDWLEDAFQLAVNVNSPRNKSENPMVQLFYGTFLTEGVREGKPFCNNETFGQYPLQVNGYRNLDECLEGAMVEGDVELLPSDHSVKYGQERWFTKLPPVLTFELSRFEFNQSLGQPEKIHNKLEFPQIIYMDRYMYRSKELIRNKRECIRKLKEEIKILQQKLERYVKYGSGPARFPLPDMLKYVIEFASTKPASESCPPESDTHMTLPLSSVHCSVSDQTSKESTSTESSSQDVESTFSSPEDSLPKSKPLTSSRSSMEMPSQPAPRTVTDEEINFVKTCLQRWRSEIEQDIQDLKTCIASTTQTIEQMYCDPLLRQVPYRLHAVLVHEGQANAGHYWAYIYNQPRQSWLKYNDISVTESSWEEVERDSYGGLRNVSAYCLMYINDKLPYFNAEAAPTESDQMSEVEALSVELKHYIQEDNWRFEQEVEEWEEEQSCKIPQMESSTNSSSQDYSTSQEPSVASSHGVRCLSSEHAVIVKEQTAQAIANTARAYEKSGVEAALSEVMLSPAMQGVILAIAKARQTFDRDGSEAGLIKAFHEEYSRLYQLAKETPTSHSDPRLQHVLVYFFQNEAPKRVVERTLLEQFADKNLSYDERSISIMKVAQAKLKEIGPDDMNMEEYKKWHEDYSLFRKVSVYLLTGLELYQKGKYQEALSYLVYAYQSNAALLMKGPRRGVKESVIALYRRKCLLELNAKAASLFETNDDHSVTEGINVMNELIIPCIHLIINNDISKDDLDAIEVMRNHWCSYLGQDIAENLQLCLGEFLPRLLDPSAEIIVLKEPPTIRPNSPYDLCSRFAAVMESIQGVSTVTVK
notes: not shown: Flag tag
binding result [4]: no binding

B3: SPOP (speckle-type POZ polypeptide), wild-type (other, human, UniProt O43791 1-374, looked up)
chain: MSRVPSPPPPAEMSSGPVAESWCYTQIKVVKFSYMWTINNFSFCREEMGEVIKSSTFSSGANDKLKWCLRVNPKGLDEESKDYLSLYLLLVSCPKSEVRAKFKFSILNAKGEETKAMESQRAYRFVQGKDWGFKKFIRRDFLLDEANGLLPDDKLTLFCEVSVVQDSVNISGQNTMNMVKVPECRLADELGGLWENSRFTDCCLCVAGQEFQAHKAILAARSPVFSAMFEHEMEESKKNRVEINDVEPEVFKEMMCFIYTGKAPNLDKMADDLLAAADKYALERLKVMCEDALCSNLSVENAAEILILADLHSADQLKTQAVDFINYHASDVLETSGWKSMVVSHPHLVAEAYRSLASAQCPFLGPPRKRLKQS
notes: also called SPOP-WT; wild-type SPOP
binding result [5]: no binding
binding result [6]: no binding
binding result [7]: no binding
binding result [8]: binds
binding result [9]: binds
binding result [10]: binds
binding result [11]: binds

B4: HDAC10 (enzyme, human, UniProt Q969S8 1-669, looked up)
chain: MGTALVYHEDMTATRLLWDDPECEIERPERLTAALDRLRQRGLEQRCLRLSAREASEEELGLVHSPEYVSLVRETQVLGKEELQALSGQFDAIYFHPSTFHCARLAAGAGLQLVDAVLTGAVQNGLALVRPPGHHGQRAAANGFCVFNNVAIAAAHAKQKHGLHRILVVDWDVHHGQGIQYLFEDDPSVLYFSWHRYEHGRFWPFLRESDADAVGRGQGLGFTVNLPWNQVGMGNADYVAAFLHLLLPLAFEFDPELVLVSAGFDSAIGDPEGQMQATPECFAHLTQLLQVLAGGRVCAVLEGGYHLESLAESVCMTVQTLLGDPAPPLSGPMAPCQSALESIQSARAAQAPHWKSLQQQDVTAVPMSPSSHSPEGRPPPLLPGGPVCKAAASAPSSLLDQPCLCPAPSVRTAVALTTPDITLVLPPDVIQQEASALREETEAWARPHESLAREEALTALGKLLYLLDGMLDGQVNSGIAATPASAAAATLDVAVRRGLSHGAQRLLCVALGQLDRPPDLAHDGRSLWLNIRGKEAAALSMFHVSTPLPVMTGGFLSCILGLVLPLAYGFQPDLVLVALGPGHGLQGPHAALLAAMLRGLAGGRVLALLEENSTPQLAGILARVLNGEAPPSLGPSSVASPEDVQALMYLRGQLEPQWKMLQCHPHLVA
binding result [12]: binds

The next lines start with the values.

binding result [4]: no binding
B5: Flag-USP15 (enzyme, UniProt Q9Y4E8 1-981, looked up)
chain: MAEGGAADLDTQRSDIATLLKTSLRKGDTWYLVDSRWFKQWKKYVGFDSWDKYQMGDQNVYPGPIDNSGLLKDGDAQSLKEHLIDELDYILLPTEGWNKLVSWYTLMEGQEPIARKVVEQGMFVKHCKVEVYLTELKLCENGNMNNVVTRRFSKADTIDTIEKEIRKIFSIPDEKETRLWNKYMSNTFEPLNKPDSTIQDAGLYQGQVLVIEQKNEDGTWPRGPSTPKSPGASNFSTLPKISPSSLSNNYNNMNNRNVKNSNYCLPSYTAYKNYDYSEPGRNNEQPGLCGLSNLGNTCFMNSAIQCLSNTPPLTEYFLNDKYQEELNFDNPLGMRGEIAKSYAELIKQMWSGKFSYVTPRAFKTQVGRFAPQFSGYQQQDCQELLAFLLDGLHEDLNRIRKKPYIQLKDADGRPDKVVAEEAWENHLKRNDSIIVDIFHGLFKSTLVCPECAKISVTFDPFCYLTLPLPMKKERTLEVYLVRMDPLTKPMQYKVVVPKIGNILDLCTALSALSGIPADKMIVTDIYNHRFHRIFAMDENLSSIMERDDIYVFEININRTEDTEHVIIPVCLREKFRHSSYTHHTGSSLFGQPFLMAVPRNNTEDKLYNLLLLRMCRYVKISTETEETEGSLHCCKDQNINGNGPNGIHEEGSPSEMETDEPDDESSQDQELPSENENSQSEDSVGGDNDSENGLCTEDTCKGQLTGHKKRLFTFQFNNLGNTDINYIKDDTRHIRFDDRQLRLDERSFLALDWDPDLKKRYFDENAAEDFEKHESVEYKPPKKPFVKLKDCIELFTTKEKLGAEDPWYCPNCKEHQQATKKLDLWSLPPVLVVHLKRFSYSRYMRDKLDTLVDFPINDLDMSEFLINPNAGPCRYNLIAVSNHYGGMGGGHYTAFAKNKDDGKWYYFDDSSVSTASEDQIVSKAAYVLFYQRQDTFSGTGFFPLDRETKGASAATGIPLESDEDSNDNDNDIENENCMHTN
notes: not shown: Flag tag

binding result [13]: no binding
B6: GST-DUB3 C-terminal fragment (other, UniProt Q6R6M4 399-530, looked up)
chain: TDRRATQGELKRDHPCLQAPELDERLVERATQESTLDHWKFPQEQNKTKPEFNVRKVEGTLPPNVLVIHQSKYKCGMKNHHPEQQSSLLNLSSTTRTDQESVNTGTLASLQGRTRRSKGKNKHSKRALLVCQ
notes: also called C-terminal fragment of DUB3; not shown: glutathione S-transferase (GST) tag
